Source: PMC10786891, “Massively parallel profiling of RNA-targeting CRISPR-Cas13d”

Target: T1, EsCas13d, nuclease-dead (Eubacterium siraeum, UniProt B0MS50, R295A;H300A;R849A;H854A)
T1 sequence: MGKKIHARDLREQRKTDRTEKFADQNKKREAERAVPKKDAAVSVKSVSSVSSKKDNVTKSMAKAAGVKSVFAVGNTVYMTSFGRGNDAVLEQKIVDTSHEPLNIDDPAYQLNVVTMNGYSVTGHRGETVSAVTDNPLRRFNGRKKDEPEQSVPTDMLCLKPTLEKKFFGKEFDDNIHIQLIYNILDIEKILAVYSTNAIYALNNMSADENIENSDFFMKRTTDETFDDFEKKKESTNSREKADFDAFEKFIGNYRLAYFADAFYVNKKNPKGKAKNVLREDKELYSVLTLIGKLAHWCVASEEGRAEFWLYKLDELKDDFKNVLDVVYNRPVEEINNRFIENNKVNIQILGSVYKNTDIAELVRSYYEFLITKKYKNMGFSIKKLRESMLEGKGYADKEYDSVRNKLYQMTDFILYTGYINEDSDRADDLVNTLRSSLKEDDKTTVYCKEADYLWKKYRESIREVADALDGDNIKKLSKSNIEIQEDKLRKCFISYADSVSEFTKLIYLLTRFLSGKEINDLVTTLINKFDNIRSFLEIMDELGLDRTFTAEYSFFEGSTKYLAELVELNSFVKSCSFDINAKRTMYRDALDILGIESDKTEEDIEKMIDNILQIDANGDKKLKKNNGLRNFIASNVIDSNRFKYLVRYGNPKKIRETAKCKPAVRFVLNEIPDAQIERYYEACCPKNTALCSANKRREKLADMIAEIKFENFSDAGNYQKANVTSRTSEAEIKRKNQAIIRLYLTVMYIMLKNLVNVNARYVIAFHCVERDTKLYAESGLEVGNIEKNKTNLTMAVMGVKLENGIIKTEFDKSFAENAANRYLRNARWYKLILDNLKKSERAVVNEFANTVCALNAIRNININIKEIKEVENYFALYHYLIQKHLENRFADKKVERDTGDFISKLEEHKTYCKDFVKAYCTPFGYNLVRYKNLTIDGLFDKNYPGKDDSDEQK
Experiment: crRNA (strand 1, pre-loaded); Mg2+; 40 mM Tris-HCl pH 7.5, 150 mM NaCl, 6 mM MgCl2, 1 mM DTT, 0.1% Tween-20, 0.2 mg/ml BSA; 25 C; 10 min per concentration, then washed
Conditions: tags: His6-TwinStrep-SUMO cleaved; N-terminal SNAP kept (SNAP-Surface 488); label: 3' end held by stalled T7 RNA polymerase

Binder | Kd [nM]
target 2 MT 5'PFS UUA 3'PFS UUU (mixed) RNA 1: CACCCGUGCAAAAUUGCAGGGGUCUAAAACCUUCUCCAAAUUGUUUCAUCCU RNA 2: GGGAAUGGAUCCACAUCUACGAAUUCUUAAGGAUGAAACAAUUUGGAGAAGUUUAGAUCGGAAGAGCACACGU | ~70
target 1 G5C,C21U (mixed) RNA 1: CACCCGUGCAAAAAUGCAGGGGUCUAAAACUGAGCGGAUAACCUCUCUAUGG RNA 2: GGGAAUGGAUCCACAUCUACGAAUUCGUACUAUAGAGAGGUUAUCCCCUCACCGAGAUCGGAAGAGCACACGU | 7.1 ± 0.4
target 2 MT 5'PFS ACA 3'PFS AGG (mixed) RNA 1: CACCCGUGCAAAAUUGCAGGGGUCUAAAACCUUCUCCAAAUUGUUUCAUCCU RNA 2: GGGAAUGGAUCCACAUCUACGAAUUCACAAGGAUGAAACAAUUUGGAGAAGAGGAGAUCGGAAGAGCACACGU | 4.9 ± 0.6
target 2 MT 5'PFS AGA 3'PFS UCC (mixed) RNA 1: CACCCGUGCAAAAUUGCAGGGGUCUAAAACCUUCUCCAAAUUGUUUCAUCCU RNA 2: GGGAAUGGAUCCACAUCUACGAAUUCAGAAGGAUGAAACAAUUUGGAGAAGUCCAGAUCGGAAGAGCACACGU | 43 ± 15
target 2 MT 5'PFS AGA 3'PFS UCA (mixed) RNA 1: CACCCGUGCAAAAUUGCAGGGGUCUAAAACCUUCUCCAAAUUGUUUCAUCCU RNA 2: GGGAAUGGAUCCACAUCUACGAAUUCAGAAGGAUGAAACAAUUUGGAGAAGUCAAGAUCGGAAGAGCACACGU | 8.2 ± 1.8
target 2 MT 5'PFS ACA 3'PFS AGC (mixed) RNA 1: CACCCGUGCAAAAUUGCAGGGGUCUAAAACCUUCUCCAAAUUGUUUCAUCCU RNA 2: GGGAAUGGAUCCACAUCUACGAAUUCACAAGGAUGAAACAAUUUGGAGAAGAGCAGAUCGGAAGAGCACACGU | 4.7 ± 1.1
target 2 MT 5'PFS AGA 3'PFS UCG (mixed) RNA 1: CACCCGUGCAAAAUUGCAGGGGUCUAAAACCUUCUCCAAAUUGUUUCAUCCU RNA 2: GGGAAUGGAUCCACAUCUACGAAUUCAGAAGGAUGAAACAAUUUGGAGAAGUCGAGAUCGGAAGAGCACACGU | 14 ± 4
target 2 MT 5'PFS ACA 3'PFS AGA (mixed) RNA 1: CACCCGUGCAAAAUUGCAGGGGUCUAAAACCUUCUCCAAAUUGUUUCAUCCU RNA 2: GGGAAUGGAUCCACAUCUACGAAUUCACAAGGAUGAAACAAUUUGGAGAAGAGAAGAUCGGAAGAGCACACGU | 3.6 ± 1.3
target 2 MT 5'PFS GCU 3'PFS UAU (mixed) RNA 1: CACCCGUGCAAAAUUGCAGGGGUCUAAAACCUUCUCCAAAUUGUUUCAUCCU RNA 2: GGGAAUGGAUCCACAUCUACGAAUUCGCUAGGAUGAAACAAUUUGGAGAAGUAUAGAUCGGAAGAGCACACGU | 11 ± 4
target 2 MT 5'PFS UGG 3'PFS AAC (mixed) RNA 1: CACCCGUGCAAAAUUGCAGGGGUCUAAAACCUUCUCCAAAUUGUUUCAUCCU RNA 2: GGGAAUGGAUCCACAUCUACGAAUUCUGGAGGAUGAAACAAUUUGGAGAAGAACAGAUCGGAAGAGCACACGU | 7.1 ± 0.6
target 2 MT 5'PFS UAU 3'PFS GAG (mixed) RNA 1: CACCCGUGCAAAAUUGCAGGGGUCUAAAACCUUCUCCAAAUUGUUUCAUCCU RNA 2: GGGAAUGGAUCCACAUCUACGAAUUCUAUAGGAUGAAACAAUUUGGAGAAGGAGAGAUCGGAAGAGCACACGU | ~50
target 2 MT 5'PFS UGU 3'PFS AUC (mixed) RNA 1: CACCCGUGCAAAAUUGCAGGGGUCUAAAACCUUCUCCAAAUUGUUUCAUCCU RNA 2: GGGAAUGGAUCCACAUCUACGAAUUCUGUAGGAUGAAACAAUUUGGAGAAGAUCAGAUCGGAAGAGCACACGU | 16.6 ± 2.6
target 1 insC 3' of 20,insU 3' of 1 (mixed) RNA 1: CACCCGUGCAAAAAUGCAGGGGUCUAAAACUGAGCGGAUAACCUCUCUAUGG RNA 2: GGGAAUGGAUCCACAUCUACGAAUUCGUACCACUAGAGAGGUUAUCCGCUCAUCCGAGAUCGGAAGAGCACACGU | 7.34 ± 0.35
target 1 A9G,G15U (mixed) RNA 1: CACCCGUGCAAAAAUGCAGGGGUCUAAAACUGAGCGGAUAACCUCUCUAUGG RNA 2: GGGAAUGGAUCCACAUCUACGAAUUCGUACCAUAGAUAGGUUGUCCGCUCACCGAGAUCGGAAGAGCACACGU | 17.3 ± 1.4
target 2 MT 5'PFS UGU 3'PFS AUA (mixed) RNA 1: CACCCGUGCAAAAUUGCAGGGGUCUAAAACCUUCUCCAAAUUGUUUCAUCCU RNA 2: GGGAAUGGAUCCACAUCUACGAAUUCUGUAGGAUGAAACAAUUUGGAGAAGAUAAGAUCGGAAGAGCACACGU | 9.9 ± 1.6
target 2 MT 5'PFS CAU 3'PFS UUG (mixed) RNA 1: CACCCGUGCAAAAUUGCAGGGGUCUAAAACCUUCUCCAAAUUGUUUCAUCCU RNA 2: GGGAAUGGAUCCACAUCUACGAAUUCCAUAGGAUGAAACAAUUUGGAGAAGUUGAGAUCGGAAGAGCACACGU | 4.5 ± 0.4
target 2 MT 5'PFS CAU 3'PFS UUA (mixed) RNA 1: CACCCGUGCAAAAUUGCAGGGGUCUAAAACCUUCUCCAAAUUGUUUCAUCCU RNA 2: GGGAAUGGAUCCACAUCUACGAAUUCCAUAGGAUGAAACAAUUUGGAGAAGUUAAGAUCGGAAGAGCACACGU | 5.2 ± 0.9
target 2 MT 5'PFS CAU 3'PFS UUC (mixed) RNA 1: CACCCGUGCAAAAUUGCAGGGGUCUAAAACCUUCUCCAAAUUGUUUCAUCCU RNA 2: GGGAAUGGAUCCACAUCUACGAAUUCCAUAGGAUGAAACAAUUUGGAGAAGUUCAGAUCGGAAGAGCACACGU | 9.1 ± 1.6
target 2 MT 5'PFS GUC 3'PFS UAU (mixed) RNA 1: CACCCGUGCAAAAUUGCAGGGGUCUAAAACCUUCUCCAAAUUGUUUCAUCCU RNA 2: GGGAAUGGAUCCACAUCUACGAAUUCGUCAGGAUGAAACAAUUUGGAGAAGUAUAGAUCGGAAGAGCACACGU | 18 ± 5
target 2 MT 5'PFS CAU 3'PFS UUU (mixed) RNA 1: CACCCGUGCAAAAUUGCAGGGGUCUAAAACCUUCUCCAAAUUGUUUCAUCCU RNA 2: GGGAAUGGAUCCACAUCUACGAAUUCCAUAGGAUGAAACAAUUUGGAGAAGUUUAGAUCGGAAGAGCACACGU | 6.2 ± 0.7
target 2 MT 5'PFS GUC 3'PFS UAG (mixed) RNA 1: CACCCGUGCAAAAUUGCAGGGGUCUAAAACCUUCUCCAAAUUGUUUCAUCCU RNA 2: GGGAAUGGAUCCACAUCUACGAAUUCGUCAGGAUGAAACAAUUUGGAGAAGUAGAGAUCGGAAGAGCACACGU | 14 ± 2
target 2 MT 5'PFS GUC 3'PFS UAC (mixed) RNA 1: CACCCGUGCAAAAUUGCAGGGGUCUAAAACCUUCUCCAAAUUGUUUCAUCCU RNA 2: GGGAAUGGAUCCACAUCUACGAAUUCGUCAGGAUGAAACAAUUUGGAGAAGUACAGAUCGGAAGAGCACACGU | 15.3 ± 2.4
target 2 MT 5'PFS ACC 3'PFS CAC (mixed) RNA 1: CACCCGUGCAAAAUUGCAGGGGUCUAAAACCUUCUCCAAAUUGUUUCAUCCU RNA 2: GGGAAUGGAUCCACAUCUACGAAUUCACCAGGAUGAAACAAUUUGGAGAAGCACAGAUCGGAAGAGCACACGU | 7.4 ± 1.6
target 2 MT 5'PFS GUC 3'PFS UAA (mixed) RNA 1: CACCCGUGCAAAAUUGCAGGGGUCUAAAACCUUCUCCAAAUUGUUUCAUCCU RNA 2: GGGAAUGGAUCCACAUCUACGAAUUCGUCAGGAUGAAACAAUUUGGAGAAGUAAAGAUCGGAAGAGCACACGU | 9.3 ± 1.4
target 1 A9G,C22A (mixed) RNA 1: CACCCGUGCAAAAAUGCAGGGGUCUAAAACUGAGCGGAUAACCUCUCUAUGG RNA 2: GGGAAUGGAUCCACAUCUACGAAUUCGUAACAUAGAGAGGUUGUCCGCUCACCGAGAUCGGAAGAGCACACGU | 21.9 ± 1.3
target 2 MT 5'PFS UGG 3'PFS AGU (mixed) RNA 1: CACCCGUGCAAAAUUGCAGGGGUCUAAAACCUUCUCCAAAUUGUUUCAUCCU RNA 2: GGGAAUGGAUCCACAUCUACGAAUUCUGGAGGAUGAAACAAUUUGGAGAAGAGUAGAUCGGAAGAGCACACGU | 8 ± 0.8
target 2 MT 5'PFS UGG 3'PFS CAC (mixed) RNA 1: CACCCGUGCAAAAUUGCAGGGGUCUAAAACCUUCUCCAAAUUGUUUCAUCCU RNA 2: GGGAAUGGAUCCACAUCUACGAAUUCUGGAGGAUGAAACAAUUUGGAGAAGCACAGAUCGGAAGAGCACACGU | 15.3 ± 2.5
target 2 MT 5'PFS UGG 3'PFS AGC (mixed) RNA 1: CACCCGUGCAAAAUUGCAGGGGUCUAAAACCUUCUCCAAAUUGUUUCAUCCU RNA 2: GGGAAUGGAUCCACAUCUACGAAUUCUGGAGGAUGAAACAAUUUGGAGAAGAGCAGAUCGGAAGAGCACACGU | 6 ± 0.9
